The target of test [1] is murine B7.1 on HCT/HHD/B7.1 cells (murine) (UniProt Q00609). Briefly: flow cytometry on HCT/HHD/B7.1 cells.
Test [2] has as its target T1, HLA-A2.1 on T2 cells (human).
T1 construct: MHC class I molecule without the tested peptide
Briefly: T2 stabilization assay, FACS.
Protocol: (§1) T2 cells were acid stripped and incubated with the indicated peptide and recombinant β2m or with β2m alone as a negative control. […] Cells were stained with BB7.2 mAb and analyzed by FACS. The number of positive cells above control level is indicated for each of the peptides.

The target of test [3] is T1, HLA-A2.1 on T2 cells. Briefly: T2 stabilization assay, acid stripped T2 cells with peptide and recombinant β2m, BB7.2 staining, FACS.
Protocol: as §1

murine B7.1 on HCT/HHD/B7.1 cells (murine), sequence (Q00609 38-306): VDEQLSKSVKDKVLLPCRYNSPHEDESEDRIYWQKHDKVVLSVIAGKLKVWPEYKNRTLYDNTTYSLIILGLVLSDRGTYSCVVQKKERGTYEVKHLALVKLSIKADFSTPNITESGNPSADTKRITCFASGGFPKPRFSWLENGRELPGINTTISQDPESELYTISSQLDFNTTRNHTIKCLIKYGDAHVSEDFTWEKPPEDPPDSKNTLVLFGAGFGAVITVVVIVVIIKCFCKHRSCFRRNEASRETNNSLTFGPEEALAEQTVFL

On to CTLA-4-Ig fusion protein (Fc fusion), for which the percent stained cells in test [1] was 100%.
Regarding KCLNIWALI (also called 1-8D peptide 3-7) [peptide 3-7 (from human 1-8D and 1-8U interferon inducible genes)], the binding result with HLA-A2.1 on T2 cells [2] was “binds”.
As to LILGIFMTI (also called 1-8D peptide 3-5) [peptide 3-5 (from human 1-8D interferon induced transmembrane protein 2)], the binding result with HLA-A2.1 on T2 cells [3] is on record as “binds”.

These data come from patent US20060263342A1 (YEDA RESEARCH AND DEVELOPMENT, published 2006).
